# Results from paper PMC12520690 (2025).
# Molecular target: NaV1.5 CTD (Homo sapiens, UniProt Q14524)
# Test: ITC
# NaV1.5 CTD, sequence (Q14524 1773-1940): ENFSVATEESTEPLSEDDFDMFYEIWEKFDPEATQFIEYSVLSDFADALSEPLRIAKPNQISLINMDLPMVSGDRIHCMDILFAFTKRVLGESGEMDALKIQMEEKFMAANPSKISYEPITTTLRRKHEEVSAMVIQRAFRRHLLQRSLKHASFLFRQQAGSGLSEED
binder,measurement,value
FGF13 (protein) MAAAIASSLIRQKRQAREREKSNACKCVSSPSKGKTSCDKNKLNVFSRVKLFGSKKRRRRRPEPQLKGIVTKLYSRQGYHLQLQADGTIDGTKDEDSTYTLFNLIPVGLRVVAIQGVQTKLYLAMNSEGYLYTSELFTPECKFKESVFENYYVTYSSMIYRQQQSGRGWYLGLNKEGEIMKGNHVKKNKPAAHFLPKPLKVAMYKEPSLHDLTEFSRSGSGTPTKSRSVSGVLNGGKSMSHNEST,Kd,123 nM
